Measurements: US20240409645A1 (DUALYX, published 2024)
Positions count from the first letter of the chain named. Each block holds one binder with its values, some of them ahead of it.

Experiments:
human IL-2Rβ [1] = molecular target: T1, human IL-2Rβ (human, UniProt P14784 27-240, limits assumed); assay: P.E. binding ELISA on coated protein
T1 construct: Recombinant protein, coated (ELISA) or immobilised on CM5 (SPR); also called hu IL-2R; interleukin 2 receptor β-chain
T1 sequence: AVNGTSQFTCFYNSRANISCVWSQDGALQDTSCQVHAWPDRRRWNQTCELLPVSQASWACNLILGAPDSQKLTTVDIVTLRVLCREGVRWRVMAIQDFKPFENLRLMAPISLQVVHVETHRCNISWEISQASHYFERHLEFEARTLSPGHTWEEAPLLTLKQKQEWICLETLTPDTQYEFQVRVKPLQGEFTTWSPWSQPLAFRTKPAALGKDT
Protocol: In a binding ELISA, human or mouse IL-2Rα, IL-2Rβ and IL-2Rγ proteins were coated directly on maxisorp microtiter plates overnight at 4° C. Free binding sites were blocked using 4% Marvel in PBS for 1 hour. Next, 1:5 dilution of P.E. in 1% Marvel/PBS were added to wells and incubated for 1 hour. […] Binding specificity was determined based on O.D. at 450 nm values compared to negative controls.

human IL-2Rβ [2] = molecular target: T1, human IL-2Rβ; assay: SPR (Biacore), P.E. off-rate ranking

B1: FJ1427 P035MP03B10 (VHH)
VHH: QVQLVESGGGLVQAGGSLRLSCVVSGDVFVRYTMAWFRQAPGKEREFVAVVTDSGRTTEYVDSVKGRFTVSRDNAKNTVYLQMNNLKPEDTAVYYCAANTDYFQIRSVDNNAWGQGTQVTVSS
notes: soluble VHH in periplasmic extract; also called clone nr
P.E. binding ELISA OD (human IL-2Rβ [1]): 0.286 OD450 nm | koff (human IL-2Rβ [2]): 0.000707 s⁻¹

B2: FJ1427 P035MP03D09 (VHH)
VHH: B1 VHH with V23A, V50S, E59D, D62H, R106K, V108L, N110A, A112T
notes: soluble VHH in periplasmic extract; also called clone nr; 260
P.E. binding ELISA OD (human IL-2Rβ [1]): 0.313 OD450 nm | koff (human IL-2Rβ [2]): 0.00161 s⁻¹

B3: FJ1427 P035MP03B12 (VHH)
VHH: B1 VHH with Q1E, V23A, V24A, V50A, T58A, E59D, V108L, N110R, A112T
notes: as for B1
P.E. binding ELISA OD (human IL-2Rβ [1]): 0.202 OD450 nm | koff (human IL-2Rβ [2]): 0.00125 s⁻¹

B6: FJ1427 P035MP06D01 (VHH)
VHH: B1 VHH with G10R, V23A, V24A, V50S, V79A, V108L, D109N, N110L, A112T
notes: as for B1
P.E. binding ELISA OD (human IL-2Rβ [1]): 1.1 OD450 nm | koff (human IL-2Rβ [2]): 0.00031 s⁻¹

B10: FJ1427 P035MP03B11 (VHH)
VHH: EVQLVESGGGLVQAGGSLRLACALSGDVFVRYTMAWFRQAPGKEREFVASVTDSGRTTDYVASVQGRFTVSRDNNKNTVYLQMNSLKPEDTAVYYCAANTDYFQIRSLDRNTWGQGTQVTVSS
notes: as for B1
P.E. binding ELISA OD (human IL-2Rβ [1]): 0.987 OD450 nm | koff (human IL-2Rβ [2]): 0.000622 s⁻¹

B13: FJ1427 P035MP03D07 (VHH)
VHH: B10 VHH with A21S, L24A, V61G, A62D, Q65K, N75A, S85N, R110A
notes: as for B1
P.E. binding ELISA OD (human IL-2Rβ [1]): 0.209 OD450 nm | koff (human IL-2Rβ [2]): 0.00263 s⁻¹

B15: FJ1427 P035MP03C06 (VHH)
VHH: B10 VHH with E1Q
notes: as for B1
P.E. binding ELISA OD (human IL-2Rβ [1]): 1.21 OD450 nm | koff (human IL-2Rβ [2]): 0.000658 s⁻¹

B16: FJ1427 P035MP03C11 (VHH)
VHH: B10 VHH with E1Q
notes: as for B1
P.E. binding ELISA OD (human IL-2Rβ [1]): 1.31 OD450 nm | koff (human IL-2Rβ [2]): 0.000514 s⁻¹

B17: FJ1427 P035MP03E07 (VHH)
VHH: B1 VHH with V23A, V50T, Q104R, V108L, N110A, A112T
notes: as for B1
P.E. binding ELISA OD (human IL-2Rβ [1]): 0.211 OD450 nm | koff (human IL-2Rβ [2]): 0.00168 s⁻¹

B22: FJ1427 P035MP03C08 (VHH)
VHH: B10 VHH
notes: as for B1
P.E. binding ELISA OD (human IL-2Rβ [1]): 0.972 OD450 nm | koff (human IL-2Rβ [2]): 0.000757 s⁻¹

B24: FJ1427 P035MP06C02 (VHH)
VHH: B1 VHH
notes: as for B1
P.E. binding ELISA OD (human IL-2Rβ [1]): 0.799 OD450 nm | koff (human IL-2Rβ [2]): 0.000455 s⁻¹

B28: FJ1427_P035MP03E08 (VHH)
VHH: QVQLVESGGGLVQAGGSLRLSCAAAGRAIENYPVGWFRRAPGKEREFVAAITWISGSTLYADSVKGRFTISRDNAKNTVYLQMSSLKPEDTALYYCAAALKTITRGQNDYSYWGQGTQVTVSS
notes: as for B1
P.E. binding ELISA OD (human IL-2Rβ [1]): 1.11 OD450 nm | koff (human IL-2Rβ [2]): 0.000149 s⁻¹

B30: FJ1427 P035MP03F09 (VHH)
VHH: B28 VHH with Q1E, R19T, A25S, I29F, E30S, R39Q, I54L, K65E, Q82L, Y95F
notes: as for B1
P.E. binding ELISA OD (human IL-2Rβ [1]): 0.621 OD450 nm | koff (human IL-2Rβ [2]): 0.000347 s⁻¹

B33: FJ1427 P035MP03E05 (VHH)
VHH: EVQLVESGGGLVQAGGSLRLSCAVSGVIFWSDVVGWYRQASGKQRELVATINLDDTKHYGEVVKGRFAISRDSHKNAYYLQLNSLKPEDTAVYYCNVRRGSEFYWGQGTQVTVSS
notes: as for B1
P.E. binding ELISA OD (human IL-2Rβ [1]): 0.23 OD450 nm | koff (human IL-2Rβ [2]): 0.000526 s⁻¹

B34: FJ1427 P035MP03A06 (VHH)
VHH: EVQLVESGGGLVQTGGSLRLSCAVSGSRFISDVMGWYRQVPGKARELVADMADGGSAKYADSVKGRFSIVRDSGKSTMYLQMSSLKPEDTGMYYCKAGLWIAGRHSDYWGQGTQVTVSS
notes: as for B1
P.E. binding ELISA OD (human IL-2Rβ [1]): 0.393 OD450 nm | koff (human IL-2Rβ [2]): 0.000195 s⁻¹

More lines, now with the values ahead:

P.E. binding ELISA OD (human IL-2Rβ [1]): 0.38 OD450 nm | koff (human IL-2Rβ [2]): 0.00122 s⁻¹
B4: FJ1427_P035MP03G11 (VHH)
VHH: B10 VHH with A21S, L24A, A62D, Q65K, N75A, S85N, D109E, R110F
notes: as for B1

P.E. binding ELISA OD (human IL-2Rβ [1]): 0.435 OD450 nm | koff (human IL-2Rβ [2]): 0.000853 s⁻¹
B5: FJ1427_P035MP06B02 (VHH)
VHH: B1 VHH with V50A
notes: soluble VHH in periplasmic extract; also called clone nr; 490

P.E. binding ELISA OD (human IL-2Rβ [1]): 0.72 OD450 nm | koff (human IL-2Rβ [2]): 0.00101 s⁻¹
B7: FJ1427_P035MP06H01 (VHH)
VHH: B10 VHH with A21S, L24V, A62H, Q65K, N75A, S85N, R106K, R110A
notes: as for B1

P.E. binding ELISA OD (human IL-2Rβ [1]): 0.649 OD450 nm | koff (human IL-2Rβ [2]): 0.00172 s⁻¹
B8: FJ1427_P035MP03H07 (VHH)
VHH: B1 VHH with Q1E, V50A
notes: as for B1

P.E. binding ELISA OD (human IL-2Rβ [1]): 0.624 OD450 nm | koff (human IL-2Rβ [2]): 0.00148 s⁻¹
B9: FJ1427_P035MP03E11 (VHH)
VHH: B1 VHH with Q1E, V50A, K87E
notes: as for B1

P.E. binding ELISA OD (human IL-2Rβ [1]): 0.401 OD450 nm | koff (human IL-2Rβ [2]): 0.000898 s⁻¹
B11: FJ1427_P035MP03B05 (VHH)
VHH: B10 VHH
notes: as for B1

P.E. binding ELISA OD (human IL-2Rβ [1]): 0.148 OD450 nm | koff (human IL-2Rβ [2]): 0.00149 s⁻¹
B12: FJ1427_P035MP06E02 (VHH)
VHH: B1 VHH with V23A, V50T, Q104R, V108L, N110A, A112T
notes: as for B1

P.E. binding ELISA OD (human IL-2Rβ [1]): 0.983 OD450 nm | koff (human IL-2Rβ [2]): 0.000636 s⁻¹
B14: FJ1427_P035MP03A10 (VHH)
VHH: B10 VHH with E1Q
notes: as for B1

P.E. binding ELISA OD (human IL-2Rβ [1]): 0.843 OD450 nm | koff (human IL-2Rβ [2]): 0.000713 s⁻¹
B18: FJ1427_P035MP03G09 (VHH)
VHH: B1 VHH
notes: as for B1

P.E. binding ELISA OD (human IL-2Rβ [1]): 1.34 OD450 nm | koff (human IL-2Rβ [2]): 0.000544 s⁻¹
B19: FJ1427_P035MP06C01 (VHH)
VHH: B10 VHH with E1Q, A21S, L24A, A62D, Q65K, N75A, S85A, R106K, R110L
notes: as for B1

P.E. binding ELISA OD (human IL-2Rβ [1]): 0.348 OD450 nm | koff (human IL-2Rβ [2]): 0.000561 s⁻¹
B20: FJ1427_P035MP06A01 (VHH)
VHH: B10 VHH with E1Q
notes: as for B1

P.E. binding ELISA OD (human IL-2Rβ [1]): 1.26 OD450 nm | koff (human IL-2Rβ [2]): 0.00055 s⁻¹
B21: FJ1427_P035MP03G08 (VHH)
VHH: B10 VHH with E1Q, E44G
notes: as for B1

P.E. binding ELISA OD (human IL-2Rβ [1]): 0.467 OD450 nm | koff (human IL-2Rβ [2]): 0.00202 s⁻¹
B23: FJ1427_P035MP03B09 (VHH)
VHH: B1 VHH with A49T, V50S, V51I, Q104R, V108L, N110A, A112T
notes: as for B1

P.E. binding ELISA OD (human IL-2Rβ [1]): 0.208 OD450 nm | koff (human IL-2Rβ [2]): 0.00048 s⁻¹
B25: FJ1427_P035MP03A09 (VHH)
VHH: QVQLVESGGGLVQAGGSLRLACAASGRTFSTLTMGWFRQAPGKEREFVAGISPSGGYAWHADSVKGRFTIDRDNAKNTVYLQTRSLRPEDTAVYYCAADHPPYGAVASRSEYEYDDWGPGTRVTVSS
notes: as for B1

P.E. binding ELISA OD (human IL-2Rβ [1]): 0.201 OD450 nm | koff (human IL-2Rβ [2]): 0.00286 s⁻¹
B26: FJ1427_P035MP03G07 (VHH)
VHH: QVQLVESGGGLVQAGGSLRLSCAASGRTFSSDAKGWFRQAPGKEREFVAAITWAGRGTDYADSVKGRFTITRDNAKNMVYLQMSNLKPEDTAVYYCALNPEGVIGPYFRNSNRYNYWGQGTQVTVSS
notes: as for B1

P.E. binding ELISA OD (human IL-2Rβ [1]): 0.166 OD450 nm | koff (human IL-2Rβ [2]): 0.00184 s⁻¹
B27: FJ1427_P035MP03H09 (VHH)
VHH: QVQLVESGGGLVQAGGSLRLSCAASGSIFSINAMGWFRQAPGKEREFVAAISRSGGSTAYVDSVKGRFTISRDNSKNMVHLQMNSLKSEDEAVYYCAATAAVGWTSRWITTDFDSWGQGTQVTVSS
notes: as for B1

P.E. binding ELISA OD (human IL-2Rβ [1]): 0.307 OD450 nm | koff (human IL-2Rβ [2]): 0.000281 s⁻¹
B29: FJ1427_P035MP03A07 (VHH)
VHH: QVQLVESGGGLVEAGGSLRLSCAASGRAFNNFPMGWFRQAPGKEREFVAAITWISGSTLYADSVKGRFTISRDKSKNTVYLQMSGLKPEDTALYYCAAALKTITRGQHDYTYWGQGTQVTVSS
notes: as for B1

P.E. binding ELISA OD (human IL-2Rβ [1]): 0.372 OD450 nm | koff (human IL-2Rβ [2]): 0.000533 s⁻¹
B31: FJ1427_P035MP03C07 (VHH)
VHH: QVQLVESGGGLVQAGDSLRLSCAASGRSLSTDCMGWVRQAPGKEREFVAGITWGTGSTLYADSVEGRFTISKDNAKNTGYLQMSSLKPEDTAVYYCAVDRYCYRGTVYRDWGRGTQVTVSS
notes: as for B1

P.E. binding ELISA OD (human IL-2Rβ [1]): 0.118 OD450 nm | koff (human IL-2Rβ [2]): 0.0012 s⁻¹
B32: FJ1427_P035MP03D10 (VHH)
VHH: QVQLQESGGGLVQAGDSLRLSCVVSGRDFSGYTMGWFRQPPGKEREFVALITWSTGRVHYTDSVEGRFTISRDSAKNTVYLQMNSLKPEDTAVYTCAAGRVGYTTNLHSYDYSGQGTQVIVSA
notes: as for B1

P.E. binding ELISA OD (human IL-2Rβ [1]): 0.914 OD450 nm | koff (human IL-2Rβ [2]): 0.000351 s⁻¹
B35: FJ1427_P035MP03G05 (VHH)
VHH: EVQLVESGGGLVQIGGSLRLSCAASGRTFSSITMAYFRQVPGKEREWVAGINFSGTRTFYADSVKGRFLISRDDAKSTMYLQMNSLKPEDTAVYYCAASPRGFYGPGNALYDYWGQGTQVTVSS
notes: as for B1
